Measurements from paper PMC9781407, “β-Xylosidase SRBX1 Activity from Sporisorium reilianum and Its Synergism with Xylanase SRXL1 in Xylose Release from Corn Hemicellulose” (Journal of Fungi, 2022).

Substrate: O=[N+]([O-])c1ccc(O[C@@H]2OC[C@@H](O)[C@H](O)[C@H]2O)cc1
Assay: purified protein
Assay type: biochemical, Sporisorium reilianum
Conditions: 50 mM-type acetate buffer assay, pH 4, substrate 1-7 mM, temperature not stated for the kinetics

B1: β-xylosidase SRBX1 (Sporisorium reilianum SRZ2) (protein)
chain: ASLEHLNMLFHTRQADASNSTDSSSVNWNISSSDNSALATAPLAGTFYRGGPALADANSPFHPVTGNGGWEWAVVKARSVVGQLTLEEKVNLTAGITGGRCEGTLGRVDRFGIPELCFQDGPAGFRASDFVTVFPAGVTTAATWNRDLIYKRAAALGAEFVAKGVNVHLGPVTGGPLGRSPFQGRNWEGFGPDPYLHGEAAYYTVSGTQSAGVISTAKHFLAYEQETYRQLYAASDPFTLNPNNNTELTYSANLDDRTLHELYLWPFMNAVRAGTGALVCVYNRVNSTQGCESSKLLNEILKDELDYQGFVVTDWSAAFNTSNTYNGGSDVVMPGGMTGGYKNLVGGSDLVRALNAGEVKIERINDGITRLLTQWYLRGQDKGYPTVSYKDGYQNTIFNGTVVNEHRDVQGDHRKIVKEIGEEAVTLIYNKRSNKAGPQGNTDFGLGLPLAKKARVAVFGSDAGPNPYGANACQDWIGLGSQLCPANATSNGTQAVGWGSGAGFFPYLIDPLAGISEVAKENRGAVLHNLNDVGDDKNQMYVKQQAGLADASLVFVQARSGEDSDRHSLRLDADGDELIKLVASQSNNTIVVMHTVGPVLMGDWFDHPNITALVLPHLPGQESGSSLARVLYGDVNPSGKMPYSMLSDEDAKRYPKIVGSPASDPQVDFYDGLYIDYRAWDKMGLKPLIPFGHGISYTNYSYSNLHIQKAGDNCYAPSAFSGSFKSDKQPGGPGSLFQYLVEVSADVQNVGAMAGDEVAQLYVGYPEAANAPIKQLRGFDKVQGLEPGAASKQATFKLAKRDFSVWDVVKQKFEVVDGEYKIWVGKSSRMSDLTLKGSVTMQNGMVVGMSS
notes: native extracellular enzyme purified from S. reilianum culture supernatant by gel filtration; theoretical precursor 874 aa, signal peptide 1-23; monomer; 12 theoretical glycosylation sites; no tag
Km: 2500 µM
